Data taken from US9803013B2, “Biological materials and uses thereof” (BioInvent International AB, priority 2005, dated 2017).

Tests used:
ICAM-2 = target: T1, ICAM-2 (Homo sapiens, UniProt P13598); assay: Binding to recombinant ICAM family protein
T1 sequence (P13598 25-275): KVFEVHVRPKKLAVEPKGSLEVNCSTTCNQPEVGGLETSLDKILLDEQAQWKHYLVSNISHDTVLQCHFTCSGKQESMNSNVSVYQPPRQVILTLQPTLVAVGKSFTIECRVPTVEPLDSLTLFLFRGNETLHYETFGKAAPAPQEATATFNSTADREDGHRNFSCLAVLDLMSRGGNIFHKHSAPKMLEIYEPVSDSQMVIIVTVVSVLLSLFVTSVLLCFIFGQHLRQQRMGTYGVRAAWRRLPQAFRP

[1] = tested on: endothelial cells (HUVEC, HMVEC); assay: HUVEC and HMVEC apoptosis assay; type: cell-based
Description: (FIG. 23G) Antibody-induced endothelial cell apoptosis. HUVEC or HMVEC endothelial cells were incubated with paclitaxel (positive control), BI-505 or isotype control IgG in the presence or absence of cross-linking mAb. Apoptosis was measured by flow-cytometry following staining of cells with Annexin V-AF488.
Based on BI-505's documented ability to confer Fc:FcγR-dependent antitumor activity in malignant B cells, and a proposed general negative role for complement activation with regard to antibody tolerability (Lim et al.; van der Kolk et al., 2001), direct cytotoxic effects (PCD, ADCC, and CDC) of BI-505 in ICAM-1-expressing human peripheral blood B cells and endothelial cells were examined.
HUVEC (Cascade Biologics, pool of donors) and HMVEC (Cascade Biologics) were plated in 6-well plates (80 000-120 000 cells/well) in the presence or absence of 200 U/mL IFNγ, in order to induce ICAM-1 expression. Media was changed the day before apoptosis-induction experiments were performed and titrated concentrations of BI-505, enlimomab or isotype control antibody were added to the cells, in the presence or absence of cross-linking Fab (ab′)2 (same as the B-cell protocol). […] Necrotic cells were identified by increased fluorescence in the FL-4 channel and apoptotic cells by increased signal in the FL-1 channel on a flow cytometer (FACSCalibur, BD Bioscience).

T cells = assay: T cell proliferation (CFSE); type: cell-based, human; details: immobilized (air-dried or wet coated) or in solution
Description: (FIG. 23F) Antibody induced T-cell proliferation. CFSE-labeled T-cells were incubated with BI-505, isotype control IgG or anti-CD3 (okt-3) IgG hyperimmobilised to cell culture plates by air-drying “A” or wet-coating “W”. Cells were cultured for 6 days, and T cell proliferation was monitored by flow-cytometry as decreased CFSE signals.
Cytokine release and T cell proliferation are thought to be common causes of mild and severe adverse reactions to antibody therapy. In order to further investigate any undesirable effects of BI-505 on ICAM-1 expressing immune cells, we therefore assessed putative effects of BI-505 on peripheral blood mononuclear cell (PBMC) cytokine release and T cell proliferation. In order to maximize the chances of identifying any PBMC-agonistic properties of BI-505, we used two different antibody-coating protocols in which the antibody was hyper-cross-linked as previously described (Stebbings et al., 2007).
T cells used in the proliferation assay were stained with CFSE (carboxyfluorescein diacetate, succinimidyl ester; Invitrogen). The CFSE-labeled cells were seeded at a density of 150,000 cells/well in wet and air-dried antibody-coated plates. The cells were cultured for 6 days with one renewal of medium after 3 days. AccuCheck Count Beads (Invitrogen) were used to ensure accurate quantification of cell proliferation in the flow cytometry. […]

B1: B11: fully human IgG1 antibody specific for ICAM-1; VH and VL sequences of FIG. 10 (SEQ ID NOs. 6 and 8) (antibody, listed as Homo sapiens, V domains shown)
VH: EVQLLESGGGLVQPGGSLRLSCAASGFTFSNAWMSWVRQAPGKGLEWVAFIWYDGSNKYYADSVKGRFTISRDNSKNTLYLQMNSLRAEDTAVYYCARYSGWYFDYWGQGTLVTVSS
VL: QSVLTQPPSASGTPGQRVTISCTGSSSNIGAGYDVHWYQQLPGTAPKLLIYDNNNRPSGVPDRFSGSKSGTSASLAISGLRSEDEADYYCQSYDSSLSAWLFGGGTKLTVLG
ICAM-2
  binding to recombinant protein: not to ICAM-2 or ICAM-3
[1]
  cell death in normal cells: did not induce cell death
T cells
  T cell proliferation: did not induce T cell proliferation
